Results: the supplement of paper PMC11246515
± gives the standard deviation of the averaged measurements.

Test: total protein half-life in vivo (active degradation + dilution); higher = more stable protein
[1] = E. coli NCM3722 delta-clpP delta-lon delta-hslV, growth: N-lim chemostat, doubling time 6 h
[2] = E. coli NCM3722 delta-clpP, growth: N-lim chemostat, doubling time 6 h
[3] = E. coli NCM3722 delta-hslV, growth: N-lim chemostat, doubling time 6 h
[4] = E. coli NCM3722 delta-lon, growth: N-lim chemostat, doubling time 6 h
[5] = E. coli NCM3722 delta-smpB, growth: N-lim chemostat, doubling time 6 h
[6] = wild type E. coli NCM3722, growth: C-lim chemostat, doubling time 3 h
[7] = wild type E. coli NCM3722, growth: C-lim chemostat, doubling time 6 h
[8] = wild type E. coli NCM3722, growth: C-lim chemostat, doubling time 12 h
[9] = wild type E. coli NCM3722, growth: N-lim chemostat, doubling time 6 h
[10] = wild type E. coli NCM3722, growth: N-lim chemostat, doubling time 12 h
[11] = wild type E. coli NCM3722, growth: P-lim chemostat, doubling time 6 h
[12] = wild type E. coli NCM3722, growth: P-lim chemostat, doubling time 12 h

Row | Sequence | total protein half-life in vivo [1] | total protein half-life in vivo [2] | total protein half-life in vivo [3] | total protein half-life in vivo [4] | total protein half-life in vivo [5] | total protein half-life in vivo [6] | total protein half-life in vivo [7] | total protein half-life in vivo [8] | total protein half-life in vivo [9] | total protein half-life in vivo [10] | total protein half-life in vivo [11] | total protein half-life in vivo [12]
1 | MKLYNLKDHNEQVSFAQAVTQGLGKNQGLFFPHDLPEFSLTEIDEMLKLDFVTRSAKILSAFIGDEIPQEILEERVRAAFAFPAPVANVESDVGCLELFHGPTLAFKDFGGRFMAQMLTHIAGDKPVTILTATSGDTGAAVAHAFYGLPNVKVVILYPRGKISPLQEKLFCTLGGNIETVAIDGDFDACQALVKQAFDDEELKVALGLNSANSINISRLLAQICYYFEAVAQLPQETRNQLVVSVPSGNFGDLTAGLLAKSLGLPVKRFIAATNVNDTVPRFLHDGQWSPKATQATLSNAMDVSQPNNWPRVEELFRRKIWQLKELGYAAVDDETTQQTMRELKELGYTSEPHAAVAYRALRDQLNPGEYGLFLGTAHPAKFKESVEAILGETLDLPKELAERADLPLLSHNLPADFAALRKLMMNHQ | 5.07 ± 0.61 h | 4.78 ± 0.058 h | 5.09 ± 0.18 h | 5.28 ± 0.25 h | 4.57 ± 0.11 h | 3.25 ± 0.27 h | 6.01 ± 0.15 h | 11.9 ± 0.91 h | 4.989 ± 0.048 h | 8.57 ± 0.57 h | 5.76 ± 0.32 h | 11.9 ± 0.51 h
2 | MTTHLVWFRQDLRLHDNLALAAACRNSSARVLALYIATPRQWATHNMSPRQAELINAQLNGLQIALAEKGIPLLFREVDDFVASVEIVKQVCAENSVTHLFYNYQYEVNERARDVEVERALRNVVCEGFDDSVILPPGAVMTGNHEMYKVFTPFKNAWLKRLREGMPECVAAPKVRSSGSIEPSPSITLNYPRQSFDTAHFPVEEKAAIAQLRQFCQNGAGEYEQQRDFPAVEGTSRLSASLATGGLSPRQCLHRLLAEQPQALDGGAGSVWLNELIWREFYRHLITYHPSLCKHRPFIAWTDRVQWQSNPAHLQAWQEGKTGYPIVDAAMRQLNSTGWMHNRLRMITASFLVKDLLIDWREGERYFMSQLIDGDLAANNGGWQWAASTGTDAAPYFRIFNPTTQGEKFDHEGEFIRQWLPELRDVPGKVVHEPWKWAQKAGVTLDYPQPIVEHKEARVQTLAAYEAARKGK | 5.62 ± 0.31 h | 6.1 ± 1 h | 6.2 ± 0.4 h | 6.08 ± 0.8 h | 5.35 ± 0.34 h | 3.23 ± 0.22 h | 6.25 ± 0.49 h | 11.533 ± 0.011 h | 5.49 ± 0.16 h | 11.1 ± 0.21 h | 6.17 ± 0.76 h | 11.62 ± 0.014 h
3 | MKICLIDETGTGDGALSVLAARWGLEHDEDNLMALVLTPEHLELRKRDEPKLGGIFVDFVGGAMAHRRKFGGGRGEAVAKAVGIKGDYLPDVVDATAGLGRDAFVLASVGCRVRMLERNPVVAALLDDGLARGYADAEIGGWLQERLQLIHASSLTALTDITPRPQVVYLDPMFPHKQKSALVKKEMRVFQSLVGPDLDADGLLEPARLLATKRVVVKRPDYAPPLANVATPNAVVTKGHRFDIYAGTPV | 6.34 ± 1.2 h | 5.05 ± 0.67 h | 5.29 h | 5.92 ± 0.037 h | 5.27 ± 0.32 h | – | – | 11.1 ± 1 h | 5.3 ± 0.28 h | 11.5 ± 1.8 h | – | 12.9 ± 0.86 h
4 | MRIFVYGSLRHKQGNSHWMTNAQLLGDFSIDNYQLYSLGHYPGAVPGNGTVHGEVYRIDNATLAELDALRTRGGEYARQLIQTPYGSAWMYVYQRPVDGLKLIESGDWLDRDK [P0AE48] | 5.12 ± 0.42 h | 4.63 ± 0.19 h | 4.95 ± 0.15 h | 5.345 ± 0.014 h | 5 ± 0.3 h | 2.57 ± 0.21 h | 5.316 ± 0.012 h | 8.87 ± 0.3 h | 4.49 ± 0.61 h | 7.76 ± 0.7 h | 5.27 ± 0.36 h | 11.5 ± 1.6 h
5 | MRNRTLADLDRVVALGGGHGLGRVLSSLSSLGSRLTGIVTTTDNGGSTGRIRRSEGGIAWGDMRNCLNQLITEPSVASAMFEYRFGGNGELSGHNLGNLMLKALDHLSVRPLEAINLIRNLLKVDTHLIPMSEHPVDLMAIDDQGHEVYGEVNIDQLTTPIQELLLTPNVPATREAVHAINEADLIIIGPGSFYTSLMPILLLKEIAQALRRTPAPMVYIGNLGRELSLPAANLKLESKLAIMEQYVGKKVIDAVIVGPKVDVSAVKERIVIQEVLEASDIPYRHDRQLLHNALEKALQALG | 4.62 ± 0.5 h | 4.2 ± 0.13 h | 4.3 ± 0.14 h | 5.33 ± 0.18 h | 4.5 ± 0.17 h | 3.16 ± 0.085 h | 5.45 ± 0.32 h | 10.3 ± 1.7 h | 4.6 ± 0.073 h | 7.33 ± 0.076 h | 6.31 ± 0.59 h | 12.1 ± 0.98 h
6 | MTIKNKMLLGALLLVTSAAWAAPATAGSTNTSGISKYELSSFIADFKHFKPGDTVPEMYRTDEYNIKQWQLRNLPAPDAGTHWTYMGGAYVLISDTDGKIIKAYDGEIFYHR | 5.04 ± 0.4 h | 5.973 ± 0.043 h | 6.26 ± 0.2 h | 5.84 ± 0.39 h | 6.59 ± 0.59 h | 3.09 ± 0.24 h | 5.37 ± 0.16 h | 8.3 ± 1.4 h | 6.03 ± 0.036 h | 11.5 ± 0.32 h | 5.446 ± 0.049 h | 13.4 ± 2.4 h
7 | MSLVCSVIFIHHAFNANILDKDYAFSDGEILMVDNAVRTHFEPYERHFKEIGFTENTIKKYLQCTNIQTVTVPVPAKFLRASNVPTGLLNEMIAYLNSEERNHHNFSELLLFSCLSIFAACKGFITLLTNGVLSVSGKVRNIVNMKPAHPWKLKDICDCLYISESLLKKKLKQEQTTFSQILLDARMQHAKNLIRVEGSVNKIAEQCGYASTSYFIYAFRKHFGNSPKRVSKEYRCQSHTGMNTGNTMNALAI | 4.92 h | – | – | – | – | – | – | – | – | – | – | –
8 | MAMHLNENLDDNGEMHDINVTPFIDVMLVLLIIFMVAAPLATVDVKVNLPASTSTPQPRPEKPVYLSVKADNSMFIGNDPVTDETMITALNALTEGKKDTTIFFRADKTVDYETLMKVMDTLHQAGYLKIGLVGEETAKAK [P0ABV2] | 2.68 ± 0.35 h | 2.74 ± 0.56 h | – | – | 0.61 h | 1.34 ± 0.17 h | 0.847 ± 0.64 h | 1.88 ± 0.74 h | 1.12 h | – | 1.01 h | 2.15 h
